Measurements as given in patent publication US20240261333A1, “NOVEL TARGETS FOR ENHANCING ANTI-TUMOR IMMUNITY” (THE BROAD INSTITUTE, INC., priority 2021, published 2024).

Experiments:
HNRNPF = HNRNPF (UniProt P52597); test: co-IP with mouse IgG control, mass spectrometry; lysate of C-FLAG B3GNT2 cells
RPL21 = RPL21 (UniProt P46778); test: as above
UBA52 = UBA52 (UniProt P62987); test: as above
HBA1 = HBA1 (UniProt P69905); test: as above
RCC2 = RCC2 (UniProt Q9P258); test: as above
ENO1 = ENO1 (UniProt P06733); test: as above
YWHAZ = YWHAZ (UniProt P63104); test: as above
TPI1 = TPI1 (UniProt P60174); test: as above
S100A9 = S100A9 (UniProt P06702); test: as above
RPL11 = RPL11 (UniProt P62913); test: as above
FABP5 = FABP5 (UniProt Q01469); test: as above
RPL35A = RPL35A (UniProt P18077); test: as above
RPL36 = RPL36 (UniProt Q9Y3U8); test: as above
SLIRP = SLIRP (UniProt Q9GZT3); test: as above
ACTR3 = ACTR3 (UniProt P61158); test: as above
SERPINB12 = SERPINB12 (UniProt Q96P63); test: as above
LYZ = LYZ (UniProt P61626); test: as above
RPN1 = RPN1 (UniProt P04843); test: as above
RPL36A = RPL36A (UniProt P83881); test: as above
RPS17 = RPS17 (UniProt P08708); test: as above
YBX3 = YBX3 (UniProt P16989); test: as above
CTSD = CTSD (UniProt P07339); test: as above
RPLP2 = RPLP2 (UniProt P05387); test: as above
RPS15A = RPS15A (UniProt P62244); test: as above
SPRR2E = SPRR2E (UniProt P22531); test: as above
RPL10A = RPL10A (UniProt P62906); test: as above
PPIA = PPIA (UniProt P62937); test: as above
TRIM21 = TRIM21 (UniProt P19474); test: as above
LTF = LTF (UniProt P02788); test: as above
STRAP = STRAP (UniProt Q9Y3F4); test: as above
S100A8 = S100A8 (UniProt P05109); test: as above
EEF1A1 = EEF1A1 (UniProt P68104); test: as above
ATP5F1B = ATP5F1B (UniProt P06576); test: as above
FAM3C (human) = FAM3C (human) (UniProt Q92520); test: co-IP/MS, anti-FLAG IP of N-FLAG B3GNT2 cell lysate
PCBP1 (human) = PCBP1 (human) (UniProt Q15365); test: as above
RPLPO (human) = RPLPO (human) (UniProt P05388); test: as above
RCN2 (human) = RCN2 (human) (UniProt Q14257); test: as above
TGM3 (human) = TGM3 (human) (UniProt Q08188); test: as above
Sequence of TGM3 (human) (Q08188 2-693 limits assumed): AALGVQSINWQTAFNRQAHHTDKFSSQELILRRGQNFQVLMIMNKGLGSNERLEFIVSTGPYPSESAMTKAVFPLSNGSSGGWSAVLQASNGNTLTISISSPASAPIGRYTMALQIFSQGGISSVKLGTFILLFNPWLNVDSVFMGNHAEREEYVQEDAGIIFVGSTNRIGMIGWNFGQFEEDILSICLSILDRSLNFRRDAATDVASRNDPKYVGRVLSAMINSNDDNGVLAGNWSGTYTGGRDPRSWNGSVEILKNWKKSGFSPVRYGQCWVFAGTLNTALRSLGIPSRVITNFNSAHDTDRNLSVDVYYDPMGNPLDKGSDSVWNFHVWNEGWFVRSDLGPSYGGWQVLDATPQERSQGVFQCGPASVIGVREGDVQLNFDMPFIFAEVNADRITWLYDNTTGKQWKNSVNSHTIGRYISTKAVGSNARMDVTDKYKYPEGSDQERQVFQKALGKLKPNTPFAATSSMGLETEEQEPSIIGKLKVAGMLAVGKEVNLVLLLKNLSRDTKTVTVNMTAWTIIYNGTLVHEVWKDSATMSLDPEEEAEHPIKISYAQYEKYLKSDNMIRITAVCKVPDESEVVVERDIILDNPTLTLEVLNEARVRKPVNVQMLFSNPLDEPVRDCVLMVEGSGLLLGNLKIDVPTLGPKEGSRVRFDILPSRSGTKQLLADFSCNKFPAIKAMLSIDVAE

Sequence of SPRR2E (P22531 whole entry): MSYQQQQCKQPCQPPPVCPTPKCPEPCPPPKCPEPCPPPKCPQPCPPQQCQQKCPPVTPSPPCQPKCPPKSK
Sequence of LYZ (P61626 19-148 limits assumed): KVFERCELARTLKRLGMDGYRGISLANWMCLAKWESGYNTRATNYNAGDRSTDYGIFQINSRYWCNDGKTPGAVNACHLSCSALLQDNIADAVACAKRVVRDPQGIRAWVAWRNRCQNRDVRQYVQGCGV
Sequence of YBX3 (P16989 2-372 limits assumed): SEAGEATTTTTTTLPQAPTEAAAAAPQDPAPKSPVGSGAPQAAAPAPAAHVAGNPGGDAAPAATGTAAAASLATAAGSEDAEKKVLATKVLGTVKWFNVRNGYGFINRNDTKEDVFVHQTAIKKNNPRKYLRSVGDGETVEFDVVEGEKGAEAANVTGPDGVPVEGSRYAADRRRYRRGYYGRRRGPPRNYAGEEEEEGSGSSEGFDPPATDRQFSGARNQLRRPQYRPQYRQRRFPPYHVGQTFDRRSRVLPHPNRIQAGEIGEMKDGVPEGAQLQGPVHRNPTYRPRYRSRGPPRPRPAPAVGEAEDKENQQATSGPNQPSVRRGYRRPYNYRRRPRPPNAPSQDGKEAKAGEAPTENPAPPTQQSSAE
Sequence of RCN2 (human) (Q14257 other isoform, or with tags, fused parts or gaps limits assumed): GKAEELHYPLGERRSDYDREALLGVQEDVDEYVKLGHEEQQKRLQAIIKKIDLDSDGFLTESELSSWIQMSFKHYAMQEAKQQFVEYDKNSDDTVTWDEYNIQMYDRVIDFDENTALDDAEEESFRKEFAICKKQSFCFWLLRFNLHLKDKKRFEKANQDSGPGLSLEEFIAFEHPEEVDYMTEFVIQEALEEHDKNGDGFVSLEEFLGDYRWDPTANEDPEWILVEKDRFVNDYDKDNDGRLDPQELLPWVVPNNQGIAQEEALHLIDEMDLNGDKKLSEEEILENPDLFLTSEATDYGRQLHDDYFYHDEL
Sequence of TRIM21 (P19474 whole entry): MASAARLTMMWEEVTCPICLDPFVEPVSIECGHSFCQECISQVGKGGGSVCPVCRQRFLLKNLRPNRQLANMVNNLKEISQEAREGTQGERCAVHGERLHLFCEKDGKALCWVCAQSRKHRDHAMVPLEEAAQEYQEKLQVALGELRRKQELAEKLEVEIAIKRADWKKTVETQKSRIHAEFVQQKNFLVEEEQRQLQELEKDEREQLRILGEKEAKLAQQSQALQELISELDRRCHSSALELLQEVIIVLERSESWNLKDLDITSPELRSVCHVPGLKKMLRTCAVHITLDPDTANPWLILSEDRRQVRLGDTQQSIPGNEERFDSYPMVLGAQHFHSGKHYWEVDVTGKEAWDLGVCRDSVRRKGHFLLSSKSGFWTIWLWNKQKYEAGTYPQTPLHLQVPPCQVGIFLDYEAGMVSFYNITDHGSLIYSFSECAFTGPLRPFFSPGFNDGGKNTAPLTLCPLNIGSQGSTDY
Sequence of FABP5 (Q01469 2-135 limits assumed): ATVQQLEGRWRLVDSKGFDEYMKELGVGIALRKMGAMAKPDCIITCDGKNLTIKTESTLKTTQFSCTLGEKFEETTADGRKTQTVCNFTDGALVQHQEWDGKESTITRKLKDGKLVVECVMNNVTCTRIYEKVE
Sequence of HBA1 (P69905 2-142 limits assumed): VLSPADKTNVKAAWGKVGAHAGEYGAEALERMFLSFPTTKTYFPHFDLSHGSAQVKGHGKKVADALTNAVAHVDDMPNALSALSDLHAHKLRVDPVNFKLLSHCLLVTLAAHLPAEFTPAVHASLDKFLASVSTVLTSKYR
Sequence of FAM3C (human) (Q92520 25-227 limits assumed): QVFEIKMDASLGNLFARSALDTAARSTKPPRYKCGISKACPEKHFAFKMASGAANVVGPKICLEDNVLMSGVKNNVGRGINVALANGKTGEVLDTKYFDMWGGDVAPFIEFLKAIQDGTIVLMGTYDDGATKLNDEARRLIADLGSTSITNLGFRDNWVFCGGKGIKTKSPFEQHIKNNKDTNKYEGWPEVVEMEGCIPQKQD
Sequence of ENO1 (P06733 2-434 limits assumed): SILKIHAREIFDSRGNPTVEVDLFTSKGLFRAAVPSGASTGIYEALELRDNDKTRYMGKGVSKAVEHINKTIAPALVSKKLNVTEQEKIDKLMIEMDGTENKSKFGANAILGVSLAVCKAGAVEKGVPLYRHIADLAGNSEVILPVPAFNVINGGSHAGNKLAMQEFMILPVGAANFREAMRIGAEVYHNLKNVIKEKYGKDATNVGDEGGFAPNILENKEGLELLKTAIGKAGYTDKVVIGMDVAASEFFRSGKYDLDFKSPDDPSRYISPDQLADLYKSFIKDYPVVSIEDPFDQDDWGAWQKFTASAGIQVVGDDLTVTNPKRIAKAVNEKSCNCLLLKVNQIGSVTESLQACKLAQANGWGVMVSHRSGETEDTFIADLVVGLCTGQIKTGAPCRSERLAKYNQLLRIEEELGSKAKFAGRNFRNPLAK
Sequence of EEF1A1 (P68104 2-462 limits assumed): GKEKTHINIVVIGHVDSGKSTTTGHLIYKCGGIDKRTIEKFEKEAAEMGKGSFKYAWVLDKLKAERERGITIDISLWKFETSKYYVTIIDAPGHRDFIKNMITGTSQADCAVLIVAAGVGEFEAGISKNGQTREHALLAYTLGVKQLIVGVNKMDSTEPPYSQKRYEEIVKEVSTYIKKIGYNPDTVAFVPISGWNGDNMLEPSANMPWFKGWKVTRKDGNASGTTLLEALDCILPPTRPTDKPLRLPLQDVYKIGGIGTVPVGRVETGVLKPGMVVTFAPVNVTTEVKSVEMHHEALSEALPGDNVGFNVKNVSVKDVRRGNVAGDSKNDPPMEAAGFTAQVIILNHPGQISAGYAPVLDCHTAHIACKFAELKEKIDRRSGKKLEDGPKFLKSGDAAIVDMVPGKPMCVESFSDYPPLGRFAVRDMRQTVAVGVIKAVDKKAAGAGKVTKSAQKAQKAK
Sequence of RPLP2 (P05387 whole entry): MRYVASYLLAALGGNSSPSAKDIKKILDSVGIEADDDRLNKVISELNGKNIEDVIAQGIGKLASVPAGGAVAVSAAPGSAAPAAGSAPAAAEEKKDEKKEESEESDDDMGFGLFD
Sequence of PPIA (P62937 2-165 limits assumed): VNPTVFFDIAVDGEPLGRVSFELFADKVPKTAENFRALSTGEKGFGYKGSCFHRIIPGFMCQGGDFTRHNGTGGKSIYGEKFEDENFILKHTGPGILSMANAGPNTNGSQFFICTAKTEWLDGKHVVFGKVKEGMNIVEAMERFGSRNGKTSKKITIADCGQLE
Sequence of S100A8 (P05109 whole entry): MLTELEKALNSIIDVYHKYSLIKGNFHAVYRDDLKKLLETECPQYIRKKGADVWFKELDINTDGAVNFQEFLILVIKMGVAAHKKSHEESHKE
Sequence of RCC2 (Q9P258 whole entry): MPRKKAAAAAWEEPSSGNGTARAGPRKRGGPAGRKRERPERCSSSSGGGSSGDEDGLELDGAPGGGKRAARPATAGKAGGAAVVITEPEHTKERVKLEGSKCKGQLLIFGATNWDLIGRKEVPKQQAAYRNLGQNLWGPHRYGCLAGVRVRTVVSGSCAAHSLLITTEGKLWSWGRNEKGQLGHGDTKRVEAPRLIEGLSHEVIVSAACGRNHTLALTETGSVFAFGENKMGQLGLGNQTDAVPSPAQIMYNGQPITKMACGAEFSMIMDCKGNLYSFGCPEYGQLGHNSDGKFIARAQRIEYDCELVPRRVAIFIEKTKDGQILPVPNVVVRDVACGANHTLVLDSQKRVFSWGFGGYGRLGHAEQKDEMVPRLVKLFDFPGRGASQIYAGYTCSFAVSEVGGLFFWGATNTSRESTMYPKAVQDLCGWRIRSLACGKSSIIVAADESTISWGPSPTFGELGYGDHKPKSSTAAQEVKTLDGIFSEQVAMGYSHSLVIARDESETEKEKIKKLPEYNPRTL
Sequence of ATP5F1B (P06576 48-529 limits assumed): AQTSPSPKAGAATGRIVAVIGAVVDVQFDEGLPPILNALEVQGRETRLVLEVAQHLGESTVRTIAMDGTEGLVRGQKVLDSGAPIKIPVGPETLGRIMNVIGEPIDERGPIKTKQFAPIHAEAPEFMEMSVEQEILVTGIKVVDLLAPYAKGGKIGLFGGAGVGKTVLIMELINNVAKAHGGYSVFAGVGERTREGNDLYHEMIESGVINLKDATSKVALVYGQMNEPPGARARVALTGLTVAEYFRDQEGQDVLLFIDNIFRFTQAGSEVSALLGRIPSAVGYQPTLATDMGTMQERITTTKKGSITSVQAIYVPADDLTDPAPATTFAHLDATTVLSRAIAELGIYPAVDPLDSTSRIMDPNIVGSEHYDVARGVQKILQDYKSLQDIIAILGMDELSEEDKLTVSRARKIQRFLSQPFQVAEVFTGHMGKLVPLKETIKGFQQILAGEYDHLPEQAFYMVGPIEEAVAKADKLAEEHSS

Substance: IgG control (Millipore Sigma 12-371) (antibody)
- co-IP mass spectrometry count (HNRNPF): 3
- co-IP mass spectrometry count (RPL21): 5
- co-IP mass spectrometry count (UBA52): 7
- co-IP mass spectrometry count (HBA1): 0
- co-IP mass spectrometry count (RCC2): 0
- co-IP mass spectrometry count (ENO1): 2
- co-IP mass spectrometry count (YWHAZ): 0
- co-IP mass spectrometry count (TPI1): 0
- co-IP mass spectrometry count (S100A9): 5
- co-IP mass spectrometry count (RPL11): 3
- co-IP mass spectrometry count (FABP5): 0
- co-IP mass spectrometry count (RPL35A): 0
- co-IP mass spectrometry count (RPL36): 0
- co-IP mass spectrometry count (SLIRP): 0
- co-IP mass spectrometry count (ACTR3): 2
- co-IP mass spectrometry count (SERPINB12): 0
- co-IP mass spectrometry count (LYZ): 0
- co-IP mass spectrometry count (RPN1): 0
- co-IP mass spectrometry count (RPL36A): 0
- co-IP mass spectrometry count (RPS17): 5
- co-IP mass spectrometry count (YBX3): 0
- co-IP mass spectrometry count (CTSD): 0
- co-IP mass spectrometry count (RPLP2): 0
- co-IP mass spectrometry count (RPS15A): 2
- co-IP mass spectrometry count (SPRR2E): 5
- co-IP mass spectrometry count (RPL10A): 0
- co-IP mass spectrometry count (PPIA): 0
- co-IP mass spectrometry count (TRIM21): 0
- co-IP mass spectrometry count (LTF): 2
- co-IP mass spectrometry count (STRAP): 0
- co-IP mass spectrometry count (S100A8): 5
- co-IP mass spectrometry count (EEF1A1): 5
- co-IP mass spectrometry count (ATP5F1B): 0

Substance: N-terminal FLAG tagged B3GNT2 (from UniProt Q9NY97 1-397) (enzyme)
- co-IP mass spectrometry count (FAM3C (human)): 2
- co-IP mass spectrometry count (PCBP1 (human)): 4
- co-IP mass spectrometry count (RPLPO (human)): 6
- co-IP mass spectrometry count (RCN2 (human)): 7
- co-IP mass spectrometry count (TGM3 (human)): 9
